The target of experiment [1] is T1, FNR648-labeled human serum albumin (human, UniProt P02768 25-609, FNR648 fluorescence dye conjugated (site not stated)).
T1 construct: human serum albumin (HSA), human; The pre-clearing step of the IP names plain 'HSA'; the detected species is FNR648-HSA; also called FNR648-HSA; HSA
The experiment in a line: co-IP; SPARC and FNR648-HSA incubated 2 h at 4 °C after pre-clearing (normal rabbit serum, protein A/G PLUS-Agarose); precipitated with rabbit anti-SPARC antibody and protein A/G PLUS-Agarose; 8% SDS-PAGE, FNR648 fluorescence in the gel read by IVIS. The note with it: both partners purified.

Experiment [2] concerns the target T1, FNR648-labeled human serum albumin. Kind of experiment: FRET or BRET; Cy3-SPARC (donor) and FNR648-HSA (acceptor) added to U87MG cells; confocal imaging, excitation 514 nm, emission 540-600 nm (Cy3-SPARC) and 640-750 nm (FNR648-HSA); line ROI analysis. The note with it: both partners purified.

T1 sequence (P02768 25-609): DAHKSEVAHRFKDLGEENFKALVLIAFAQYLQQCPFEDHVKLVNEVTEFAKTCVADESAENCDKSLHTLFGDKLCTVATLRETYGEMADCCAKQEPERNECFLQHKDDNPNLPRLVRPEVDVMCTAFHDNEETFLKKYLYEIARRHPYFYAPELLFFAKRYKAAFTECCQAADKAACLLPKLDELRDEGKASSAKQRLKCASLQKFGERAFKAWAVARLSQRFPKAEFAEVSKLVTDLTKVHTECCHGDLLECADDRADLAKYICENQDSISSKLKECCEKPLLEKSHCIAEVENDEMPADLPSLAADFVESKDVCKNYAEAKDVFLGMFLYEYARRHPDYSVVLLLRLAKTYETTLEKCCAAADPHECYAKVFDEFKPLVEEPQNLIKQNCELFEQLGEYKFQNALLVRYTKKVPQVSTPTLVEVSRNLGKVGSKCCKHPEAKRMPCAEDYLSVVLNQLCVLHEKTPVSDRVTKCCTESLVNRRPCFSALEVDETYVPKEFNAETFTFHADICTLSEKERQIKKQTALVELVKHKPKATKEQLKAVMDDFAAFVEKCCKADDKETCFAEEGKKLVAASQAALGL

B1: recombinant human SPARC (secreted protein acidic and rich in cysteine) (natural protein, UniProt P09486 18-303, looked up)
chain: APQQEALPDETEVVEETVAEVTEVSVGANPVQVEVGEFDDGAEETEEEVVAENPCQNHHCKHGKVCELDENNTPMCVCQDPTSCPAPIGEFEKVCSNDNKTFDSSCHFFATKCTLEGTKKGHKLHLDYIGPCKYIPPCLDSELTEFPLRMRDWLKNVLVTLYERDEDNNLLTEKQKLRVKKIHENEKRLEAGDHPVELLARDFEKNYNMYIFPVHWQFGQLDQHPIDGYLSHTELAPLRAPLIPMEHCTTRFFETCDLDNDKYIALDEWAGCFGIKQKDIDKDLVI
notes: secreted protein acidic and rich in cysteine (SPARC), human, recombinant, cell-derived; also called exogenous SPARC; source: bought: R&D system (cell-derived, 941-SP)
Take B1: in experiment [1], the binding result is given as “binds”.

B2: Cy3-labeled recombinant human SPARC (natural protein, UniProt P09486 18-303, looked up)
chain: B1 chain
modifications: ADIBO-NHS conjugated, then Cy3-azide by click reaction (sites not given)
notes: secreted protein acidic and rich in cysteine (SPARC), human, recombinant, cell-derived; Same bought protein as m2, with the Cy3 label; also called Cy3-SPARC; fluorescence-labeled SPARC; source: bought: R&D system (cell-derived, 941-SP), then labelled via ADIBO-NHS and Cy3-azide click reaction
As for B2, the binding result in experiment [2] is “binds”.
